{"source": "patent EP1724347A2", "about": "(Yale University, dated 2006)", "binders": {"B1": {"name": "Bak peptide, fluorescein-labeled form with additional carboxy-terminal YC (peptide)", "peptide": "GQVGRQLAIIGDDINRYC(5‑iodoacetamidofluorescein)-NH2", "notes": "also called Bak BH3 peptide; Bak 72-94"}, "B2": {"name": "pZutshi, as competitor (not labeled) (designed binder)", "chain": "GPSQPTYPGDDAPVEDLIRFKFLLQWYLLAL", "notes": "also called p3559"}}, "key": {"Calmodulin (Sigma)": {"biological_target": "Calmodulin (Sigma) (Homo sapiens (Human), UniProt P0DP23 2-149)", "test": "fluorescence titration of the labeled peptide; buffer with 130 mM KCl, 1 mM CaCl2"}, "[1]": {"biological_target": "Carbonic anhydrase II (Sigma)", "test": "fluorescence titration of the labeled peptide, PBS"}, "[2]": {"biological_target": "T1, Human recombinant Bcl-2 (1-205), soluble GST-fusion (human, UniProt P10415 1-205)", "T1 construct": "Bought from Santa Cruz Biotechnology; also called GST-Bcl-2; not shown: glutathione S-transferase (GST) fusion partner", "T1 sequence (P10415 1-205)": "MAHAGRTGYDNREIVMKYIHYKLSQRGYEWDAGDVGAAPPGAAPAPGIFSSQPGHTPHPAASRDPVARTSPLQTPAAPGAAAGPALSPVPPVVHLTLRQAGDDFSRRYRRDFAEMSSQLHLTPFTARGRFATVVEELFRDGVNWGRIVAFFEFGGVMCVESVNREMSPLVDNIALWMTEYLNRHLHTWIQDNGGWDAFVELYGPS", "test": "change of fluorescence emission of the fluorescein-labeled peptide on titration with Bcl-2, 4°C, PBS"}, "[3]": {"biological_target": "T2, GST-hDM2 (residues 1-188) (human, UniProt Q00987 1-188)", "T2 construct": "also called human oncoprotein double minute two; not shown: glutathione S-transferase (GST) fusion partner", "T2 sequence (Q00987 1-188)": "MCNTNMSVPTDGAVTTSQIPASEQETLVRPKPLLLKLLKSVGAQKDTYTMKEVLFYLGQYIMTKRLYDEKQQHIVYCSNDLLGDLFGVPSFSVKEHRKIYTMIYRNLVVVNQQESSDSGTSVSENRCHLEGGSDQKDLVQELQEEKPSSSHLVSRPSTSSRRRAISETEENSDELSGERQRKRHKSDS", "test": "competition with 10 nM p53AD-Flu for 400 nM GST-hDM2; fraction of p53AD-Flu bound at equilibrium"}}, "note": "Where no end group is shown, it is not given here."}
{"binder": "B1", "values": [{"measurement": "Kd", "setting": "Calmodulin (Sigma)", "value": 25, "unit": "µM"}, {"measurement": "Kd", "setting": "[1]", "value": 22, "unit": "µM"}, {"measurement": "Kd", "setting": "[2]", "value": 0.363, "unit": "µM"}]}
{"binder": "B2", "values": [{"measurement": "Ki", "setting": "[3]", "value": 0.722, "unit": "µM"}]}
